Substitutions are numbered along the chain they refer to. Names may count otherwise.
T1: human CD73 expressed at the cell surface (human, UniProt P21589 27-549)
T1 sequence: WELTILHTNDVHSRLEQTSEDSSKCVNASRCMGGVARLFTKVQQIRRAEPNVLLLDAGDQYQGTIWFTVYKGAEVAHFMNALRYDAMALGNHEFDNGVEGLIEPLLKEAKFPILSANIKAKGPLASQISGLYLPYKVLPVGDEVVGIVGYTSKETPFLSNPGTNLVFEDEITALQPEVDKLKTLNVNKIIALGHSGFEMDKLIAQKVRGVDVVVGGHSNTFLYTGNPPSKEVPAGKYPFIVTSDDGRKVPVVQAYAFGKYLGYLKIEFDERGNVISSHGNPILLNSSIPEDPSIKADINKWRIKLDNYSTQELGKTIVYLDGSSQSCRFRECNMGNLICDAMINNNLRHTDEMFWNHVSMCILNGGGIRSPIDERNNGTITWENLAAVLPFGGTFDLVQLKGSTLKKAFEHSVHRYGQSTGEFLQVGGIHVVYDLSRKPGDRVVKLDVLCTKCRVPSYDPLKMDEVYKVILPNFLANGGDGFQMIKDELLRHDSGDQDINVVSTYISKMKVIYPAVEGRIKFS

T2: recombinant human CD73-His extracellular domain protein (soluble dimer) (human, UniProt P21589 27-547)
T2 construct: Purified as a dimer; also called huCD73; soluble recombinant human CD73
T2 sequence: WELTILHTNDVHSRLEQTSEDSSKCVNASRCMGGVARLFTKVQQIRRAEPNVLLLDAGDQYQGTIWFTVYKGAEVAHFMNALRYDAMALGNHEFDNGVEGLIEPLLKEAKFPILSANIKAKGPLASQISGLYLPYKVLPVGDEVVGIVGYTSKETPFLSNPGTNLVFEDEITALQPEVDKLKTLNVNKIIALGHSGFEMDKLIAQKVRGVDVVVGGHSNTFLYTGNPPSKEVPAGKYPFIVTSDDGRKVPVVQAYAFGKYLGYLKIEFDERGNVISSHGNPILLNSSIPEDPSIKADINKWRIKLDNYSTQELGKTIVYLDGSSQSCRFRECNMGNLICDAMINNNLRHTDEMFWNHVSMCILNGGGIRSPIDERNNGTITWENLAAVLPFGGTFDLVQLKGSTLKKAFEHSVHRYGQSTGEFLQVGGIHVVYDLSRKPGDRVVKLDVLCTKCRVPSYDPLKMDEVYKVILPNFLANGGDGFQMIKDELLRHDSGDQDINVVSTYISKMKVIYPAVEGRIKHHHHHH

T3: mouse CD73 expressed on a recombinant host cell line (mouse, UniProt Q61503 29-551)
T3 construct: whole, on cells; also called moCD73
T3 sequence (looked up): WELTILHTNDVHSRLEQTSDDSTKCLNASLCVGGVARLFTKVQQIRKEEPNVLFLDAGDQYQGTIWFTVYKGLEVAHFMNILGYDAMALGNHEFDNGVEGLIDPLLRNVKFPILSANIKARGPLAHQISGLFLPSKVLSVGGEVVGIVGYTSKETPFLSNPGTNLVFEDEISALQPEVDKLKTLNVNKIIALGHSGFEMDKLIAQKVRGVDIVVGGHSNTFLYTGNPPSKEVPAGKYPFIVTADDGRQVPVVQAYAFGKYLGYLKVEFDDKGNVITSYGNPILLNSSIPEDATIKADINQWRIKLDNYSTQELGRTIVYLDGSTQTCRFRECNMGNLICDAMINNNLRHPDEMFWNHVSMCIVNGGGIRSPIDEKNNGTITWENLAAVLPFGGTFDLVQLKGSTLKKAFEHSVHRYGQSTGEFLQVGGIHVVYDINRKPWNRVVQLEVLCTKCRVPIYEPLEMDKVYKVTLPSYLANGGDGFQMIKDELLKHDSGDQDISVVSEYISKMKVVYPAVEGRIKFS

B1: antibody 11E1 (antibody, human IgG1, V domains shown)
VH: EIQLQQSGPELVKPGASVKVSCKASGYAFTSYNMYWVKQSHGKSLEWIGYIDPYNGGTSYNQKFKGKATLTVDKSSSTAYMHLNSLTSEDSAVYYCARGYGNYKAWFAYWGQGTLVTVSA
VL: DAVMTQTPKFLLVSAGDRVTITCKASQSVTNDVAWYQQKPGQSPKLLIYYASNRYTGVPDRFTGSGYGTDFTFTISTVQAEDLAVYFCQQDYSSLTFGAGTKLELK
notes: Produced as chimeric human IgG1 with heavy chain N297Q (Kabat EU numbering); also called 1E11
B2: antibody 6E1 (antibody, human IgG1, V domains shown)
VH: B1 VH with I2F, S44R, T58S, S85N, G101N
VL: B1 VL with D1S, A2I, V78M
notes: Produced as chimeric human IgG1 with heavy chain N297Q (Kabat EU numbering)
B3: antibody 3C12 (antibody, human IgG1, V domains shown)
VH: B1 VH with E1Q, T30A, Y35N, E46D, T58S, Q62L, K63T, S77T
VL: DVVMTQTPKFLLVSAGDRVTITCKASQSVSNDVAWYQQKPGQSPKLLIYYASTRYTGVPDRFTGSGYGTDFTFTISTVQAEDLAVYFCQQDYSSLTFGAGTKLELKR
notes: Produced as chimeric human IgG1 with heavy chain N297Q (Kabat EU numbering); RTVAAP)

biological target: T1, human CD73 expressed at the cell surface; test: cell-based or functional assay

Row | decrease of the enzymatic activity of cellular CD73 (MDA-MB-231 cells) | Binder
1 | > 75% | B1
2 | > 75% | B2
3 | > 75% | B3

biological target: T1, human CD73 expressed at the cell surface; test: cell-based or functional assay; remark: another data set of the same source

Row | EC50 for neutralization of 5'-ectonucleotidase activity, mean over MDA-MB-231, H292 and A375 cells | EC70 for neutralization of 5'-ectonucleotidase activity, mean over MDA-MB-231, H292 and A375 cells | EC100 for neutralization of 5'-ectonucleotidase activity, mean over MDA-MB-231, H292 and A375 cells | Binder
4 | 0.1 µg/mL | 0.15 µg/mL | 0.52 µg/mL | B1
5 | 0.13 µg/mL | 0.19 µg/mL | 0.68 µg/mL | B2
6 | 0.14 µg/mL | 0.18 µg/mL | 0.3 µg/mL | B3

biological target: T2, recombinant human CD73-His …; test: ELISA, plate-coated recombinant human CD73
Protocol: 5 μg/ml of recombinant human CD73 protein (IPH, isoform E6) was coated on MaxiSorp ELISA plates (Nunc) in PBS, overnight at 4° C. Plates were washed 5 times in washing buffer (PBS, 0.05% Tween20) and unspecific sites were saturated by adding 200 μl/w TBS starting block buffer (Thermo Ficher). Dose-range of anti-CD73 antibodies were incubated for 2 h at 37° C. Plates were washed 5 times in washing buffer and HRP-coupled goat anti-human or goat anti-mouse IgG Fc fragment secondary antibody (Bethyl, 1/50000) was added for 1 hr at RT to detect bound anti-CD73 antibodies. […] The enzymatic reaction was stopped by adding HCl 1M and O.D. was measured at 450 nm. Optical density vs. anti-CD73 Ab concentration was plotted on graphs and EC50 is calculated using GraphPad Prism software.

Row | EC50 | Binder
7 | 0.012 µg/mL | B1
8 | 0.014 µg/mL | B2
9 | 0.014 µg/mL | B3

biological target: T1, human CD73 expressed at the cell surface; test: flow cytometry on MDA-MB-231 cells, medium (no APCP)
Protocol: MDA-MB-231 cells are available from ATCC (reference HTB-26). 10⁵ cells resuspended in PBS/0.2% BSA/0.02% NaN3 (named “staining buffer”) are distributed into round bottom 96W-microplates. Dose-range of anti-CD73 antibodies was added to the plates and cells are incubated for 45 min at 4° C. Cells were washed three times in staining buffer by spinning plates at 400 g for 3 min at 4° C. PE-coupled goat anti-mouse or goat anti-human IgG Fc fragment secondary antibodies (Beckman Coulter) diluted in staining buffer were added to the cells and plates are incubated for 30 additional minutes at 4° C. Cells were washed three times as described above and analyzed on an Accury C6 flow cytometer equipped with an HTFC plate reader.
Cells were pre-incubated at 37° C. for 30 minutes in the presence or not of 200 μM adenosine 5′-(α,β-methylene)diphosphate (APCP), followed by addition of antibodies. APCP is an analog of ADP and binds irreversibly to the active site of CD73. When bound by APCP, CD73 changes conformation from an “open” conformation to a “closed” conformation. mAbs 11E1, 8C7, 3C12 and 6E1 bound MDA-MB-231 cells with good affinity both in the presence and absence of APCP. In the presence of APCP, the EC50 was similar to that observed in the absence of APCP. The plateau for maximal binding of 11E1, 8C7, 3C12 and 6E1 was higher in the absence of APCP than in the presence of APCP, while the inverse was true for AD2.

Row | EC50 | Binder
10 | 0.0611 µg/mL | B1
11 | 0.0584 µg/mL | B2
12 | 0.0572 µg/mL | B3

biological target: T3, mouse CD73 expressed on a recombinant …; test: flow cytometry titration on a mouse-CD73-expressing recombinant host cell line, median of fluorescence

Row | binding result | Binder
13 | no binding (tested: about 30-40 µg/ml) | B1
14 | no binding (tested: about 30-40 µg/ml) | B2
15 | no binding (tested: about 30 µg/ml) | B3
